Substrate in the data set: O=[N+]([O-])c1ccc(O[C@@H]2O[C@H](CO)[C@@H](O)[C@H](O)[C@H]2O)cc1
Nature of the data set: purified protein.

Setting [1] is: WT-1 preparation, absorbance followed 1 h.
Setting [2] is: tested with WT-1, error exceeds value, poorly determined fit.

Numbering of substitutions follows the chain as printed. In names and notes the source's numbering stands.

B1: β-glucosidase B (BglB) (Paenibacillus polymyxa) (protein)
chain: MSENTFIFPATFMWGTSTSSYQIEGGTDEGGRTPSIWDTFCQIPGKVIGGDCGDVACDHFHHFKEDVQLMKQLGFLHYRFSVAWPRIMPAAGIINEEGLLFYEHLLDEIELAGLIPMLTLYHWDLPQWIEDEGGWTQRETIQHFKTYASVIMDRFGERINWWNTINEPYCASILGYGTGEHAPGHENWREAFTAAHHILMCHGIASNLHKEKGLTGKIGITLNMEHVDAASERPEDVAAAIRRDGFINRWFAEPLFNGKYPEDMVEWYGTYLNGLDFVQPGDMELIQQPGDFLGINYYTRSIIRSTNDASLLQVEQVHMEEPVTDMGWEIHPESFYKLLTRIEKDFSKGLPILITENGAAMRDELVNGQIEDTGRHGYIEEHLKACHRFIEEGGQLKGYFVWSFLDNFEWAWGYSKRFGIVHINYETQERTPKQSALWFKQMMAKNGF
Regarding B1, under setting [1], the Km is 5.4 ± 0.88 mM and the kcat stood at 0.6198 ± 0.056 s⁻¹.

B2: β-glucosidase B (BglB) (Paenibacillus polymyxa; W123R) (protein)
chain: B1 chain with W123R
As to B2, under setting [2], the Km is 49.63 ± 324.02 mM and the kcat stood at 0.00025 ± 0.0013 s⁻¹.

B3: β-glucosidase B (BglB) (Paenibacillus polymyxa; F155G) (protein)
chain: B1 chain with F155G
On to B3, for which, where the note is “tested with WT-1”, the Km turned out to be 6.10 mM and the kcat is 0.3093 s⁻¹.

B4: β-glucosidase B (BglB) (Paenibacillus polymyxa; W438D) (protein)
chain: B1 chain with W438D
Take B4: under “tested with WT-2”, the Km came out at 10.28 ± 2.14 mM and the kcat was 0.1765 ± 0.0275 s⁻¹.

B5: β-glucosidase B (BglB) (Paenibacillus polymyxa; V401A) (protein)
chain: B1 chain with V401A
For the protein B5, under “tested with WT-2”, the Km is 8.27 ± 1.24 mM and the kcat turned out to be 0.341 ± 0.0215 s⁻¹.

B6: β-glucosidase B (BglB) (Paenibacillus polymyxa; Q22T) (protein)
chain: B1 chain with Q22T
For the protein B6, under setting [2], the Km is 99.02 ± 247.88 mM and the kcat came out at 0.00433 ± 0.001 s⁻¹.

B7: β-glucosidase B (BglB) (Paenibacillus polymyxa; Y169M) (protein)
chain: B1 chain with Y169M
As to B7, where the note is “tested with WT-2”, the Km is reported as 22.2 ± 5.53 mM and the kcat was determined as 0.8428 ± 0.2272 s⁻¹.

For the origin of these results see publication doi:10.1101/2019.12.23.887380v2.
